Experimental data reported in patent US20230058779A1, “COMBINATION CANCER TREATMENT USING A PD-1 ANTAGONIST, AN ILT4 ANTAGONIST, AND LENVATINIB OR SALTS THEREOF” (Merck Sharp & Dohme LLC, priority 2020, published 2023).

Tested on: participants with advanced solid tumors
Test: Phase 1 open label, multi-arm, multi-center study of MK-4830 as monotherapy or in combination with pembrolizumab (NCT03564691)
Type: in vivo, human
Conditions: 1600 mg dose level, MK-4830 monotherapy cohort

## MK-4830: anti-ILT4 antibody; light chain SEQ ID NO:5, heavy chain SEQ ID NO:10
  transient Grade 3 blood pressure increase: one episode
